Experiments:
[1] = target: T1, soluble interleukin-6 receptor (sIL-6R) (Homo sapiens, UniProt P08887); test: cell-based or functional assay
[2] = target: T1, soluble interleukin-6 receptor (sIL-6R); test: SPR; Biacore X100 plus; anti-Fc antibody immobilised on CM5 chip (~2500 RU) captures the antibody sample (1.0 ug/mL, 10 uL/min, 60 s); IL-6R injected 150 to 4.7 ng/mL, 30 uL/min, 180 s, dissociation 500 s, HBS-EP+ buffer; minimum and maximum of four batches; conditions: both partners purified

T1 sequence (P08887 20-365): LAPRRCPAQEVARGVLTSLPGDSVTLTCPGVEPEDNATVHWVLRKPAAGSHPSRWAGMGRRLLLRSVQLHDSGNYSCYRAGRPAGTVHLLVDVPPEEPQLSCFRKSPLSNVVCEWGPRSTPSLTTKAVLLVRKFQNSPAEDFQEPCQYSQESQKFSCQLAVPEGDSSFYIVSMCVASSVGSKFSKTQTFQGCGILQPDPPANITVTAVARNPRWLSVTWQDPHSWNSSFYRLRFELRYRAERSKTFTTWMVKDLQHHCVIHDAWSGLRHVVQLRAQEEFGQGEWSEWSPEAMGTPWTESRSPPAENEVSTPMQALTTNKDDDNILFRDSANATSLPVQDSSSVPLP

Binder | DS-1 cell growth inhibition (CCK-8, 72 hrs, antibody 800 ug/mL to 12.21 ng/mL), relative potency (EC50) towards originator tocilizumab, batch 1 of 4; blocks IL-6 with IL-6R on the cells [1] | DS-1 cell growth inhibition (CCK-8, 72 hrs, antibody 800 ug/mL to 12.21 ng/mL), relative potency (EC50) towards originator tocilizumab, batch 2 of 4; blocks IL-6 with IL-6R on the cells [1] | DS-1 cell growth inhibition (CCK-8, 72 hrs, antibody 800 ug/mL to 12.21 ng/mL), relative potency (EC50) towards originator tocilizumab, batch 3 of 4; blocks IL-6 with IL-6R on the cells [1] | DS-1 cell growth inhibition (CCK-8, 72 hrs, antibody 800 ug/mL to 12.21 ng/mL), relative potency (EC50) towards originator tocilizumab, batch 4 of 4; blocks IL-6 with IL-6R on the cells [1] | Kd [2]
HS628 (proposed biosimilar tocilizumab) (antibody, V domains shown, found identical to the heavy chain of m1; found identical to the light chain of m1; IgG1; Four batches tested (20130901-20130904); source: Zhejiang Hisun Pharmaceutical; copies: 2 + 2) VH: EVQLQESGPGLVRPSQTLSLTCTVSGYSITSDHAWSWVRQPPGRGLEWIGYISYSGITTYNPSLKSRVTMLRDTSKNQFSLRLSSVTAADTAVYYCARSLARTTAMDYWGQGSLVTVSS VL: DIQMTQSPSSLSASVGDRVTITCRASQDISSYLNWYQQKPGKAPKLLTYYTSRLHSGVPSRFSGSGSGTDFTFTISSLQPEDIATYYCQQGNTLPYTFGQGTKVEIK | 98 % relative potency | 102 % relative potency | 94 % relative potency | 105 % relative potency | 0.92 to 1.17 nM
Originator tocilizumab (Actemra) (antibody, V domains shown, Recombinant humanized IgG1; also called originator product; source: bought: Roche Pharma (Schweiz) Ltd. (manufactured by Chugai Pharma Manufacturing Co., Ltd.); copies: 2 + 2) VH: EVQLQESGPGLVRPSQTLSLTCTVSGYSITSDHAWSWVRQPPGRGLEWIGYISYSGITTYNPSLKSRVTMLRDTSKNQFSLRLSSVTAADTAVYYCARSLARTTAMDYWGQGSLVTVSS VL: DIQMTQSPSSLSASVGDRVTITCRASQDISSYLNWYQQKPGKAPKLLTYYTSRLHSGVPSRFSGSGSGTDFTFTISSLQPEDIATYYCQQGNTLPYTFGQGTKVEIK | – | – | – | – | 1.08 to 1.78 nM

From paper PMC5352868, “Physicochemical and Biological Characterization of the Proposed Biosimilar Tocilizumab” (BioMed Research International, 2017)
